The target in experiment [1] is SUMO2, full-length mouse, adenovirally overexpressed (mouse) (UniProt P61957). In words: proximity ligation; fixed NRVCM; primary antibodies against SUMO2/3 (Abcam, mouse) and CnA (Upstate, rabbit); cells infected with Ad LacZ, Ad S2 or Ad S2ΔGG with or without Ad ΔCnA; read-out: percentage of PLA-positive nuclei.
Experiment [2] addresses SUMO2ΔGG, diglycine-deficient mouse SUMO2 mutant, adenovirally overexpressed (mouse) (UniProt P61957). Described as above.

With “calcineurin A (endogenous, rat) (from UniProt P63329 1-521) (natural protein)”, the increase of PLA signal on overexpression in experiment [1] is 14%; in experiment [2], 17%.

In the case of “constitutively active calcineurin A (from UniProt P63328 1-521) (enzyme)”, the PLA signal (percent) in experiment [1] came out at 64%; in experiment [2], 54%.

The values above are taken from article PMC5073337.
